Source: US20130005646A1 (Novo Nordisk, published 2013)
Starred links: 1 amine or outer side, 2 acyl side, 3 side chain; linkers in the order of their positions; H or OH if unused. Positions of bridges follow the written chain, without caps; N, C: chain ends. *: point of attachment. C20 diacid = O=C(O)CCCCCCCCCCCCCCCCCCC(=O)*; C18 diacid = O=C(O)CCCCCCCCCCCCCCCCC(=O)*; γGlu = O=C(O)[C@H](CCC(=O)[*:2])N[*:1]

T1: human amylin 3(a) receptor (human calcitonin receptor + RAMP-3) (human, UniProt P30988 25-474; O60896 24-148)
T1 sequence (looked up) 1: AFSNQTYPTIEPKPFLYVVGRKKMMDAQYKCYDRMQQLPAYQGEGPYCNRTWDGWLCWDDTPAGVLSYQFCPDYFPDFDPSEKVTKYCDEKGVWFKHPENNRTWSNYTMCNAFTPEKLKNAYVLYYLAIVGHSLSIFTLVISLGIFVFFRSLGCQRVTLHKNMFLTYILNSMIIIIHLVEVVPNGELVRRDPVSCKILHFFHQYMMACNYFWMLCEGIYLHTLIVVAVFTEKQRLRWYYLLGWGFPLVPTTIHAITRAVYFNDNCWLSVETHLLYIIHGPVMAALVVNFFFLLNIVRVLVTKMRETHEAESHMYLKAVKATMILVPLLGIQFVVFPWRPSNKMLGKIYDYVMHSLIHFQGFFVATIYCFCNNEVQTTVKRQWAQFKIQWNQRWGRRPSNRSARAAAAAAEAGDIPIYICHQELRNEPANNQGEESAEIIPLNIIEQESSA
T1 sequence (looked up) 2: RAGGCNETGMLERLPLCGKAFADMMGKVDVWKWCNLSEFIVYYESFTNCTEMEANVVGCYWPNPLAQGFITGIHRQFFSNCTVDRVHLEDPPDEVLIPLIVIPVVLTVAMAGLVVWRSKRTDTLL

T2: human calcitonin (a) receptor (human, UniProt P30988 25-474)
T2 sequence (looked up): T1 sequence (looked up) 1

B1: N-alpha-[(S)-4-Carboxy-4-(19-carboxynonadecanoylamino)butyryl]-His-[Glu14,Arg17,His35]-pramlintide (peptide)
peptide: {C20 diacid-γGlu}-HKCNTATCATQRLAEFLRHSSNNFGPILPPTNVGSHTY-NH2
modifications: disulfide 3-8
SMILES: CC[C@H](C)[C@H](NC(=O)[C@@H]1CCCN1C(=O)CNC(=O)[C@H](Cc1ccccc1)NC(=O)[C@H](CC(N)=O)NC(=O)[C@H](CC(N)=O)NC(=O)[C@H](CO)NC(=O)[C@H](CO)NC(=O)[C@H](Cc1c[nH]cn1)NC(=O)[C@H](CCCNC(=N)N)NC(=O)[C@H](CC(C)C)NC(=O)[C@H](Cc1ccccc1)NC(=O)[C@H](CCC(=O)O)NC(=O)[C@H](C)NC(=O)[C@H](CC(C)C)NC(=O)[C@H](CCCNC(=N)N)NC(=O)[C@H](CCC(N)=O)NC(=O)[C@@H](NC(=O)[C@H](C)NC(=O)[C@@H]1CSSC[C@H](NC(=O)[C@H](CCCCN)NC(=O)[C@H](Cc2c[nH]cn2)NC(=O)CC[C@H](NC(=O)CCCCCCCCCCCCCCCCCCC(=O)O)C(=O)O)C(=O)N[C@@H](CC(N)=O)C(=O)N[C@@H]([C@@H](C)O)C(=O)N[C@@H](C)C(=O)N[C@@H]([C@@H](C)O)C(=O)N1)[C@@H](C)O)C(=O)N[C@@H](CC(C)C)C(=O)N1CCC[C@H]1C(=O)N1CCC[C@H]1C(=O)N[C@H](C(=O)N[C@@H](CC(N)=O)C(=O)N[C@H](C(=O)NCC(=O)N[C@@H](CO)C(=O)N[C@@H](Cc1c[nH]cn1)C(=O)N[C@H](C(=O)N[C@@H](Cc1ccc(O)cc1)C(N)=O)[C@@H](C)O)C(C)C)[C@@H](C)O
B2: N-alpha-[(S)-4-Carboxy-4-(17-carboxyheptadecanoylamino)butyryl]-His-[Glu14,Arg17,His35]-pramlintide (peptide)
peptide: {C18 diacid-γGlu}-HKCNTATCATQRLAEFLRHSSNNFGPILPPTNVGSHTY-NH2
modifications: disulfide 3-8
SMILES: CC[C@H](C)[C@H](NC(=O)[C@@H]1CCCN1C(=O)CNC(=O)[C@H](Cc1ccccc1)NC(=O)[C@H](CC(N)=O)NC(=O)[C@H](CC(N)=O)NC(=O)[C@H](CO)NC(=O)[C@H](CO)NC(=O)[C@H](Cc1c[nH]cn1)NC(=O)[C@H](CCCNC(=N)N)NC(=O)[C@H](CC(C)C)NC(=O)[C@H](Cc1ccccc1)NC(=O)[C@H](CCC(=O)O)NC(=O)[C@H](C)NC(=O)[C@H](CC(C)C)NC(=O)[C@H](CCCNC(=N)N)NC(=O)[C@H](CCC(N)=O)NC(=O)[C@@H](NC(=O)[C@H](C)NC(=O)[C@@H]1CSSC[C@H](NC(=O)[C@H](CCCCN)NC(=O)[C@H](Cc2c[nH]cn2)NC(=O)CC[C@H](NC(=O)CCCCCCCCCCCCCCCCC(=O)O)C(=O)O)C(=O)N[C@@H](CC(N)=O)C(=O)N[C@@H]([C@@H](C)O)C(=O)N[C@@H](C)C(=O)N[C@@H]([C@@H](C)O)C(=O)N1)[C@@H](C)O)C(=O)N[C@@H](CC(C)C)C(=O)N1CCC[C@H]1C(=O)N1CCC[C@H]1C(=O)N[C@H](C(=O)N[C@@H](CC(N)=O)C(=O)N[C@H](C(=O)NCC(=O)N[C@@H](CO)C(=O)N[C@@H](Cc1c[nH]cn1)C(=O)N[C@H](C(=O)N[C@@H](Cc1ccc(O)cc1)C(N)=O)[C@@H](C)O)C(C)C)[C@@H](C)O
B3: N-alpha-[(S)-4-Carboxy-4-(17-carboxyheptadecanoylamino)butyryl]-His-[Glu14,His17,His35]-pramlintide (peptide)
peptide: {C18 diacid-γGlu}-HKCNTATCATQRLAEFLHHSSNNFGPILPPTNVGSHTY-NH2
modifications: disulfide 3-8
SMILES: CC[C@H](C)[C@H](NC(=O)[C@@H]1CCCN1C(=O)CNC(=O)[C@H](Cc1ccccc1)NC(=O)[C@H](CC(N)=O)NC(=O)[C@H](CC(N)=O)NC(=O)[C@H](CO)NC(=O)[C@H](CO)NC(=O)[C@H](Cc1c[nH]cn1)NC(=O)[C@H](Cc1c[nH]cn1)NC(=O)[C@H](CC(C)C)NC(=O)[C@H](Cc1ccccc1)NC(=O)[C@H](CCC(=O)O)NC(=O)[C@H](C)NC(=O)[C@H](CC(C)C)NC(=O)[C@H](CCCNC(=N)N)NC(=O)[C@H](CCC(N)=O)NC(=O)[C@@H](NC(=O)[C@H](C)NC(=O)[C@@H]1CSSC[C@H](NC(=O)[C@H](CCCCN)NC(=O)[C@H](Cc2c[nH]cn2)NC(=O)CC[C@H](NC(=O)CCCCCCCCCCCCCCCCC(=O)O)C(=O)O)C(=O)N[C@@H](CC(N)=O)C(=O)N[C@@H]([C@@H](C)O)C(=O)N[C@@H](C)C(=O)N[C@@H]([C@@H](C)O)C(=O)N1)[C@@H](C)O)C(=O)N[C@@H](CC(C)C)C(=O)N1CCC[C@H]1C(=O)N1CCC[C@H]1C(=O)N[C@H](C(=O)N[C@@H](CC(N)=O)C(=O)N[C@H](C(=O)NCC(=O)N[C@@H](CO)C(=O)N[C@@H](Cc1c[nH]cn1)C(=O)N[C@H](C(=O)N[C@@H](Cc1ccc(O)cc1)C(N)=O)[C@@H](C)O)C(C)C)[C@@H](C)O
B4: N-alpha-[(S)-4-Carboxy-4-(19-carboxynonadecanoylamino)butyryl]-[Glu14,His17,Ala25,Pro26,Ser28,Ser29,His35]-pramlintide (peptide)
peptide: {C20 diacid-γGlu}-KCNTATCATQRLAEFLHHSSNNFGAPLSSTNVGSHTY-NH2
modifications: disulfide 2-7
SMILES: CC(C)C[C@H](NC(=O)[C@H](CCCNC(=N)N)NC(=O)[C@H](CCC(N)=O)NC(=O)[C@@H](NC(=O)[C@H](C)NC(=O)[C@@H]1CSSC[C@H](NC(=O)[C@H](CCCCN)NC(=O)CC[C@H](NC(=O)CCCCCCCCCCCCCCCCCCC(=O)O)C(=O)O)C(=O)N[C@@H](CC(N)=O)C(=O)N[C@@H]([C@@H](C)O)C(=O)N[C@@H](C)C(=O)N[C@@H]([C@@H](C)O)C(=O)N1)[C@@H](C)O)C(=O)N[C@@H](C)C(=O)N[C@@H](CCC(=O)O)C(=O)N[C@@H](Cc1ccccc1)C(=O)N[C@@H](CC(C)C)C(=O)N[C@@H](Cc1c[nH]cn1)C(=O)N[C@@H](Cc1c[nH]cn1)C(=O)N[C@@H](CO)C(=O)N[C@@H](CO)C(=O)N[C@@H](CC(N)=O)C(=O)N[C@@H](CC(N)=O)C(=O)N[C@@H](Cc1ccccc1)C(=O)NCC(=O)N[C@@H](C)C(=O)N1CCC[C@H]1C(=O)N[C@@H](CC(C)C)C(=O)N[C@@H](CO)C(=O)N[C@@H](CO)C(=O)N[C@H](C(=O)N[C@@H](CC(N)=O)C(=O)N[C@H](C(=O)NCC(=O)N[C@@H](CO)C(=O)N[C@@H](Cc1c[nH]cn1)C(=O)N[C@H](C(=O)N[C@@H](Cc1ccc(O)cc1)C(N)=O)[C@@H](C)O)C(C)C)[C@@H](C)O
B5: N-alpha-[(S)-4-Carboxy-4-(19-carboxynonadecanoylamino)butyryl]-His-His-[Glu14,Arg17,His35]-pramlintide (peptide)
peptide: {C20 diacid-γGlu}-HHKCNTATCATQRLAEFLRHSSNNFGPILPPTNVGSHTY-NH2
modifications: disulfide 4-9
SMILES: CC[C@H](C)[C@H](NC(=O)[C@@H]1CCCN1C(=O)CNC(=O)[C@H](Cc1ccccc1)NC(=O)[C@H](CC(N)=O)NC(=O)[C@H](CC(N)=O)NC(=O)[C@H](CO)NC(=O)[C@H](CO)NC(=O)[C@H](Cc1c[nH]cn1)NC(=O)[C@H](CCCNC(=N)N)NC(=O)[C@H](CC(C)C)NC(=O)[C@H](Cc1ccccc1)NC(=O)[C@H](CCC(=O)O)NC(=O)[C@H](C)NC(=O)[C@H](CC(C)C)NC(=O)[C@H](CCCNC(=N)N)NC(=O)[C@H](CCC(N)=O)NC(=O)[C@@H](NC(=O)[C@H](C)NC(=O)[C@@H]1CSSC[C@H](NC(=O)[C@H](CCCCN)NC(=O)[C@H](Cc2c[nH]cn2)NC(=O)[C@H](Cc2c[nH]cn2)NC(=O)CC[C@H](NC(=O)CCCCCCCCCCCCCCCCCCC(=O)O)C(=O)O)C(=O)N[C@@H](CC(N)=O)C(=O)N[C@@H]([C@@H](C)O)C(=O)N[C@@H](C)C(=O)N[C@@H]([C@@H](C)O)C(=O)N1)[C@@H](C)O)C(=O)N[C@@H](CC(C)C)C(=O)N1CCC[C@H]1C(=O)N1CCC[C@H]1C(=O)N[C@H](C(=O)N[C@@H](CC(N)=O)C(=O)N[C@H](C(=O)NCC(=O)N[C@@H](CO)C(=O)N[C@@H](Cc1c[nH]cn1)C(=O)N[C@H](C(=O)N[C@@H](Cc1ccc(O)cc1)C(N)=O)[C@@H](C)O)C(C)C)[C@@H](C)O
B6: N-alpha-[(S)-4-Carboxy-4-(19-carboxynonadecanoylamino)butyryl]-His-His-[Glu14,His17,His35]-pramlintide (peptide)
peptide: {C20 diacid-γGlu}-HHKCNTATCATQRLAEFLHHSSNNFGPILPPTNVGSHTY-NH2
modifications: disulfide 4-9
SMILES: CC[C@H](C)[C@H](NC(=O)[C@@H]1CCCN1C(=O)CNC(=O)[C@H](Cc1ccccc1)NC(=O)[C@H](CC(N)=O)NC(=O)[C@H](CC(N)=O)NC(=O)[C@H](CO)NC(=O)[C@H](CO)NC(=O)[C@H](Cc1c[nH]cn1)NC(=O)[C@H](Cc1c[nH]cn1)NC(=O)[C@H](CC(C)C)NC(=O)[C@H](Cc1ccccc1)NC(=O)[C@H](CCC(=O)O)NC(=O)[C@H](C)NC(=O)[C@H](CC(C)C)NC(=O)[C@H](CCCNC(=N)N)NC(=O)[C@H](CCC(N)=O)NC(=O)[C@@H](NC(=O)[C@H](C)NC(=O)[C@@H]1CSSC[C@H](NC(=O)[C@H](CCCCN)NC(=O)[C@H](Cc2c[nH]cn2)NC(=O)[C@H](Cc2c[nH]cn2)NC(=O)CC[C@H](NC(=O)CCCCCCCCCCCCCCCCCCC(=O)O)C(=O)O)C(=O)N[C@@H](CC(N)=O)C(=O)N[C@@H]([C@@H](C)O)C(=O)N[C@@H](C)C(=O)N[C@@H]([C@@H](C)O)C(=O)N1)[C@@H](C)O)C(=O)N[C@@H](CC(C)C)C(=O)N1CCC[C@H]1C(=O)N1CCC[C@H]1C(=O)N[C@H](C(=O)N[C@@H](CC(N)=O)C(=O)N[C@H](C(=O)NCC(=O)N[C@@H](CO)C(=O)N[C@@H](Cc1c[nH]cn1)C(=O)N[C@H](C(=O)N[C@@H](Cc1ccc(O)cc1)C(N)=O)[C@@H](C)O)C(C)C)[C@@H](C)O

Target: T1, human amylin 3(a) receptor (human …)
Assay: cell-based or functional assay

| Amylin receptor human EC50 [nM] | Binder |
| --- | --- |
| 0.0935 | B1 |
| 0.0795 | B2 |
| 0.0585 | B3 |
| 0.153 | B4 |
| 0.101 | B5 |
| 0.0965 | B6 |

Target: T2, human calcitonin (a) receptor
Assay: cell-based or functional assay

| CTa receptor human EC50 [nM] | Binder |
| --- | --- |
| 0.43 | B1 |
| 0.947 | B2 |
| 0.099 | B3 |
| 0.0945 | B4 |
| 0.615 | B5 |
| 0.115 | B6 |
